Paper PMC9482650, “Quantitative fragmentomics allow affinity mapping of interactomes” (Nature Communications, 2022)
Each block holds one binder with its values, some of them ahead of it.

Tests used:
Test in all cases: holdup assay
Set-up in all cases: key: below the threshold = too weak to quantify, mostly under pKd 3.1 to 4
[1] = target: NHERF2_2, Q15599
[2] = target: T1, NHERF3_3, Q5T2W1
T1 sequence (Q5T2W1 238-333, limits assumed, looked up): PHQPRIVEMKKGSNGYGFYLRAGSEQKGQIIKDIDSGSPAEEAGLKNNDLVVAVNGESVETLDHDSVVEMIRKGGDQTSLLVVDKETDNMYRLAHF

[3] = target: GRIP2_3, Q9C0E4
[4] = target: LAP2, Q96RT1
[5] = target: GOPC, Q9HD26
[6] = target: TJP2_1, Q9UDY2
[7] = target: T2, TJP3_3, O95049
T2 sequence (O95049 375-456, limits assumed, looked up): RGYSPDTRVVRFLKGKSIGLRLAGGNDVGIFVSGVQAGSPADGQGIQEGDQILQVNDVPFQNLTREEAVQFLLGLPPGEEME

[8] = target: T3, LNX2_3, Q8N448
T3 sequence (Q8N448 463-564, limits assumed, looked up): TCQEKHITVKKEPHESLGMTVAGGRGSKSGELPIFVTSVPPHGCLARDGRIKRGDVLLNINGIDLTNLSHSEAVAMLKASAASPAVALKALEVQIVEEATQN

[9] = target: FRMPD2_3, Q68DX3
[10] = target: LNX1_1, Q8TBB1
[11] = target: LIMK2, P53671
[12] = target: T4, DLG3_3, Q92796
T4 sequence (Q92796 374-475, limits assumed, looked up): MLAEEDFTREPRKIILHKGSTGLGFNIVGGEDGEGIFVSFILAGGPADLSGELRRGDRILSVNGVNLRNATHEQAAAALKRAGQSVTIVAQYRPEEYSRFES

[13] = target: CASK, O14936
[14] = target: FRMPD3, Q5JV73
[15] = target: GRIP2_6, Q9C0E4
[16] = target: T5, NHERF3_1, Q5T2W1
T5 sequence (Q5T2W1 4-100, limits assumed, looked up): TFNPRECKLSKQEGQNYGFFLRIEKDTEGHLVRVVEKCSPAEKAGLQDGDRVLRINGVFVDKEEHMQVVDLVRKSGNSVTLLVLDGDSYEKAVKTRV

[17] = target: T6, RHPN1, Q8TCX5
T6 sequence (Q8TCX5 508-602, limits assumed, looked up): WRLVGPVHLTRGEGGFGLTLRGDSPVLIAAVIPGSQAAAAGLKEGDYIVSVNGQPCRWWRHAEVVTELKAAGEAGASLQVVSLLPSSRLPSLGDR

[18] = target: Inadl_4, Q8NI35
[19] = target: T7, LRRC7, Q96NW7
T7 sequence (Q96NW7 1440-1537, limits assumed, looked up): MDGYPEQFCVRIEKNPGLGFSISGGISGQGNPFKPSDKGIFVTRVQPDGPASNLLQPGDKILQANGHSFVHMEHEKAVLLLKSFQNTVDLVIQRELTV

[20] = target: Inadl_8, Q8NI35
[21] = target: T8, APBA1_2, Q02410
T8 sequence (Q02410 742-832, limits assumed, looked up): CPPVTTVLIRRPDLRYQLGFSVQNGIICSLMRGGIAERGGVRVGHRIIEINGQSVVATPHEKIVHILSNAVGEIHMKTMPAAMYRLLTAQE

[22] = target: NHERF4_2, Q86UT5
[23] = target: T9, APBA3_1, O96018
T9 sequence (O96018 389-490, limits assumed, looked up): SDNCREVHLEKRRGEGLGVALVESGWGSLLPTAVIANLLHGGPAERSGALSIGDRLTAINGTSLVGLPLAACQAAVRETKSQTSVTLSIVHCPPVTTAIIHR

[24] = target: DLG4_1, P78352
[25] = target: T10, PDZD7_3, Q9H5P4
T10 sequence (Q9H5P4 857-944, limits assumed, looked up): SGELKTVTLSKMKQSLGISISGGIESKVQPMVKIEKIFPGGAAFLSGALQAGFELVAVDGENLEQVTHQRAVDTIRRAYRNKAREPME

[26] = target: T11, SHANK1, Q9Y566
T11 sequence (Q9Y566 658-767, limits assumed, looked up): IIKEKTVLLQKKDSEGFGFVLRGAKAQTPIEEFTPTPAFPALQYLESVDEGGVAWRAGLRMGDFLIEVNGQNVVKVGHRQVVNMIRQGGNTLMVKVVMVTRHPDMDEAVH

[27] = target: DLG1_3, Q12959
[28] = plain residues with an end cap or a label only (N-terminal biotin on a linker: ahx)
[29] = plain residues with an end cap or a label only (N-terminal biotin on a linker: ttds)

Chain of Inadl_4, Q8NI35 (Q8NI35 547-651): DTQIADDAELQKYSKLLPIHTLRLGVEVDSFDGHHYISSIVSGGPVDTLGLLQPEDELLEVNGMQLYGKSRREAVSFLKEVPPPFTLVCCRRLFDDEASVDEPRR
Chain of LIMK2, P53671 (P53671 143-248): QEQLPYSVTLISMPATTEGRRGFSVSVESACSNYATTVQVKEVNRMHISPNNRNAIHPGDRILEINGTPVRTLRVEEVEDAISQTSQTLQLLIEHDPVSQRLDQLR
Chain of LAP2, Q96RT1 (Q96RT1 other isoform, or with tags, fused parts or gaps): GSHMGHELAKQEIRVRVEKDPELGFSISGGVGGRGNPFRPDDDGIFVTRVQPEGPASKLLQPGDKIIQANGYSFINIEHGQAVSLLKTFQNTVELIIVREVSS
Chain of Inadl_8, Q8NI35 (Q8NI35 1425-1530): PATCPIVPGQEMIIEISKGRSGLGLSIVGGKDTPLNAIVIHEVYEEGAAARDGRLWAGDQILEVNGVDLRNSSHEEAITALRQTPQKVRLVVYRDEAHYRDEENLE
Chain of DLG4_1, P78352 (P78352 62-152): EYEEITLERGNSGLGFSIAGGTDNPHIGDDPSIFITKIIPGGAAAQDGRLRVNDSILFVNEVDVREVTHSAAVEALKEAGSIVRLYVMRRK
Chain of NHERF2_2, Q15599 (Q15599 142-238): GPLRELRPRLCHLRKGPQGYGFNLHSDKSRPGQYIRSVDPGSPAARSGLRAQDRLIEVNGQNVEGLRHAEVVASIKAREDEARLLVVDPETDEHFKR
Chain of LNX1_1, Q8TBB1 (Q8TBB1 261-371): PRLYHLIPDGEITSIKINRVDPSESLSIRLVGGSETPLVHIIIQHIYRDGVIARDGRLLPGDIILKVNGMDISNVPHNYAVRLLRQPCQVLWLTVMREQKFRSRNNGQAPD
Chain of GRIP2_3, Q9C0E4 (Q9C0E4 238-339): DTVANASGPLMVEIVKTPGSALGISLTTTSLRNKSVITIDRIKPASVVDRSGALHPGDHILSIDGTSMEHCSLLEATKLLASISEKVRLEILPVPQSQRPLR
Chain of DLG1_3, Q12959 (Q12959 457-571): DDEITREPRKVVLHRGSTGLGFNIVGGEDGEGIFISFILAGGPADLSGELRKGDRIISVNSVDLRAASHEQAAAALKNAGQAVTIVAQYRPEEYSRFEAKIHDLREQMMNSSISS
Chain of CASK, O14936 (O14936 487-570): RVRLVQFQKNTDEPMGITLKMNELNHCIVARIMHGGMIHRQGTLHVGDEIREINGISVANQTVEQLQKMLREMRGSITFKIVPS
Chain of FRMPD3, Q5JV73 (Q5JV73 12-100): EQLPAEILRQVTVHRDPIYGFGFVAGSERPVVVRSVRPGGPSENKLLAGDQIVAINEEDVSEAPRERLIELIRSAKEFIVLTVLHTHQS
Chain of FRMPD2_3, Q68DX3 (Q68DX3 1073-1166): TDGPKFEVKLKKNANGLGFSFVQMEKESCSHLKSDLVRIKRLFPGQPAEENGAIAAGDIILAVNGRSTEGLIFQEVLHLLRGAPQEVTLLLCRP
Chain of TJP2_1, Q9UDY2 (Q9UDY2 24-128): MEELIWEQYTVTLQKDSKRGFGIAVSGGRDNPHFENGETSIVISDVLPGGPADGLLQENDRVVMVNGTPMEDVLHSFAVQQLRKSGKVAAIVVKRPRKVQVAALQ
Chain of NHERF4_2, Q86UT5 (Q86UT5 220-308): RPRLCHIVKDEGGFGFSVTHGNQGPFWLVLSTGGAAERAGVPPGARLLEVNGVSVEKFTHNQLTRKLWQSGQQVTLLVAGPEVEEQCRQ
Chain of GRIP2_6, Q9C0E4 (Q9C0E4 648-740): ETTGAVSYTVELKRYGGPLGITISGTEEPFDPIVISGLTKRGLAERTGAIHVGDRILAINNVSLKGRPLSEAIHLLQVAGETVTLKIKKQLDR

Binder: CLDTSRETDL [KCNA5, P22460]
pKd [1, 29]: 4.49 | pKd [2, 29]: below the threshold | pKd [3, 29]: below the threshold | pKd [4, 29]: 3.5 | pKd [5, 29]: below the threshold | pKd [6, 29]: below the threshold | pKd [7, 29]: below the threshold | pKd [8, 29]: below the threshold | pKd [9, 29]: below the threshold | pKd [10, 29]: 3.91 | pKd [11, 29]: below the threshold | pKd [12, 29]: below the threshold | pKd [13, 29]: below the threshold | pKd [14, 29]: below the threshold | pKd [15, 29]: 3.54 | pKd [16, 29]: 4.43 | pKd [17, 29]: 4.46 | pKd [18, 29]: below the threshold | pKd [19, 29]: 3.68 | pKd [20, 29]: below the threshold | pKd [21, 29]: below the threshold | pKd [22, 29]: below the threshold | pKd [23, 29]: below the threshold | pKd [24, 29]: 3.84 | pKd [25, 29]: 4.05 | pKd [26, 29]: 3.5 | pKd [27, 29]: 3.57

Binder: TEEEVQDTRL [CFTR, P13569]
pKd [2, 29]: 3.79 | pKd [3, 29]: below the threshold | pKd [4, 29]: below the threshold | pKd [6, 29]: below the threshold | pKd [7, 29]: below the threshold | pKd [8, 29]: below the threshold | pKd [9, 29]: below the threshold | pKd [10, 29]: below the threshold | pKd [11, 29]: below the threshold | pKd [12, 29]: below the threshold | pKd [13, 29]: below the threshold | pKd [14, 29]: below the threshold | pKd [15, 29]: below the threshold | pKd [16, 29]: 4.78 | pKd [17, 29]: 4.12 | pKd [18, 29]: below the threshold | pKd [19, 29]: below the threshold | pKd [20, 29]: below the threshold | pKd [21, 29]: below the threshold | pKd [22, 29]: below the threshold | pKd [23, 29]: below the threshold | pKd [24, 29]: below the threshold | pKd [25, 29]: 4.23 | pKd [26, 29]: 5.07 | pKd [27, 29]: below the threshold

Other lines, results leading:

pKd [1, 28]: 3.68 | pKd [2, 28]: below the threshold | pKd [3, 28]: below the threshold | pKd [4, 28]: 3.62 | pKd [5, 28]: below the threshold | pKd [6, 28]: below the threshold | pKd [7, 28]: below the threshold | pKd [8, 28]: below the threshold | pKd [9, 28]: below the threshold | pKd [10, 28]: below the threshold | pKd [11, 28]: below the threshold | pKd [12, 28]: below the threshold | pKd [13, 28]: below the threshold | pKd [14, 28]: below the threshold | pKd [15, 28]: below the threshold | pKd [16, 28]: below the threshold | pKd [17, 28]: 4.23 | pKd [18, 28]: below the threshold | pKd [19, 28]: below the threshold | pKd [20, 28]: 3.86 | pKd [21, 28]: 3.65 | pKd [22, 28]: below the threshold | pKd [23, 28]: below the threshold | pKd [24, 28]: 3.59 | pKd [25, 28]: 3.87 | pKd [26, 28]: 4.28 | pKd [27, 28]: below the threshold
Binder: EDEDEQVSAV [RAPGEF2, Q9Y4G8]

pKd [1, 28]: below the threshold | pKd [2, 28]: below the threshold | pKd [3, 28]: below the threshold | pKd [4, 28]: below the threshold | pKd [5, 28]: below the threshold | pKd [6, 28]: below the threshold | pKd [7, 28]: below the threshold | pKd [8, 28]: below the threshold | pKd [9, 28]: 4.17 | pKd [10, 28]: below the threshold | pKd [11, 28]: below the threshold | pKd [12, 28]: below the threshold | pKd [13, 28]: below the threshold | pKd [14, 28]: 3.5 | pKd [15, 28]: 3.91 | pKd [16, 28]: 3.84 | pKd [17, 28]: below the threshold | pKd [18, 28]: below the threshold | pKd [19, 28]: below the threshold | pKd [20, 28]: below the threshold | pKd [21, 28]: 3.62 | pKd [22, 28]: below the threshold | pKd [23, 28]: below the threshold | pKd [24, 28]: below the threshold | pKd [25, 28]: below the threshold | pKd [26, 28]: below the threshold | pKd [27, 28]: below the threshold
Binder: KKNKDKEYYV [NRXN1, Q9ULB1]

pKd [1, 28]: below the threshold | pKd [2, 28]: below the threshold | pKd [3, 28]: below the threshold | pKd [4, 28]: below the threshold | pKd [5, 28]: below the threshold | pKd [6, 28]: 4.09 | pKd [7, 28]: below the threshold | pKd [8, 28]: below the threshold | pKd [9, 28]: below the threshold | pKd [11, 28]: below the threshold | pKd [12, 28]: below the threshold | pKd [13, 28]: below the threshold | pKd [14, 28]: below the threshold | pKd [15, 28]: below the threshold | pKd [16, 28]: below the threshold | pKd [17, 28]: 4.38 | pKd [18, 28]: below the threshold | pKd [19, 28]: below the threshold | pKd [20, 28]: 4.1 | pKd [22, 28]: below the threshold | pKd [23, 28]: below the threshold | pKd [24, 28]: below the threshold | pKd [25, 28]: below the threshold | pKd [26, 28]: below the threshold | pKd [27, 28]: below the threshold
Binder: LCKSHAFSHV [PDLIM7, Q9NR12;Q9NR12-1]
